Assay results taken from the DeepSol protein solubility set.

experiment: soluble on expression in E. coli; label from the status in PepcDB or PDB records

Soluble on expression in E. coli, soluble:
MSKNIVVAPSILSADFSRLGEEIKAVDEAGADWIHVDVMDGRFVPNITIGPLIVDAIRPLTKKTLDVHLMIVEPEKYVEDFAKAGADIISVHVEHNASPHLHRTLCQIRELGKKAGAVLNPSTPLDFLEYVLPVCDLILIMSVNPGFGGQSFIPEVLPKIRALRQMCDERGLDPWIEVDGGLKPNNTWQVLEAGANAIVAGSAVFNAPNYAEAIAGVRNSKRPEPQLATV
MASIVFSTIGNPKGYQKVTYEIDGEKFESNVSVLALRDLLKVDKTVVILGISVADVYNCKYADYRSCKECIIQNSKNDLGISESYVVAPNVYQKFKGKPDHYFTYIYYHSLRILEKEGINEVFIDTTHGINYMGVLAKEAIQLAVSAYAAKSEKEVKVSLYNSDPVGKDVSDTVKLHEIEAIKISPLSGLKYVTYQILNKDKNFFNKIFSDSVNAIPRFATALDNGLFIYLSEKDSSLHLKRLEDDLSKDPLLTPSENEINVVYKDMKYALSHALFYVISRFSGNVDLDTLRHYAETYADKVTRAIIENEVDKIEKYQMGSERKLLGEYMKVEGKGFDKRILYAHGGLPYAGTYVYKEKDKVYVTYGDKIDEIERQI
MPSCDPGPAPACLPTKTFRSYLPRCHRTYSCVHCRAHLAKHDELISKSFQGSHGRAYLFNSVVNVGCGPAEQRLLLTGLHSVADIFCESCKTTLGWKYEQAFETSQKYKEGKYIIEMSHMVKDNGWD
MGHHHHHHSHMLSVHTDMASVTKAMAAPESGLEVRDRMWLKITIPNAFLGSDVVDWLYHHVEGFPERREARKYASGLLKAGLIRHTVNKITFSEQCYYVFGDLSGGCESYLVNLSLNDNDGSSGASDQDTLAPLPGATPWPLLPTF
MAEVERQDKYLRQRNKYRFHIIPDGNCLYRAVSKTVYGDQSLHRELREQTVHYIADHLDHFSPLIEGDVGEFIIAAAQDGAWAGYPELLAMGQMLNVNIHLTTGGRLESPTVSTMIHYLGPEDSLRPSIWLSWLSNGHYDAVFDHSYPNPEYDNWCKQTQIQKKRDEELAKSMAISLSKMYIEQNACS
METFTVKMGADSGLLQFEPANVTVHPGDTVKWVNNKLPPHNILFDDKQVPGASKELADKLSHSQLMFSPGESYEITFSSDFPAGTYTYYCAPHRGAGMVGKITVEG
AELTALESLIEMGFPRGRAEKALALTGNQGIEAAMDWLMEHEDDPDVDEPL
MSNIIARFHKIQVQDGVKVWYREAGAAGNPTILLLHGFPTSSNMFRNLIPLLAGQFHIIAPDLPGFGFTETPENYKFSFDSLCESIGYLLDTLSIEKFAMYIFDYGSPVGFRLALKFPSRITGIVTQNGNAYEEGLDDRFWGPLKEYWKSYQSDPVFVKSLIPYLEDPANVICQYHDGVPAIESVDPAAYTLDIALIQRTGQTDIQLRLFFDYQNNIKLYPAFQKFLRDSKIPVLVAWGANDTIFSVAGAEAYRKDVDNLKVVYYDTGHFALETHVVAIAEEIISMFAEN
MGSSHHHHHHSSGRENLYFQGHMIPEHLSIYTAYNANIAAIVKLNQETIQNLINAFDPDEVKRRIEEYPREINEPIDFVARLVHTLKLGKPAAVPLVNEKMNEWFDKTFRYEEERLGGQAGIIANTLAGLKIRKVIAYTPFLPKRLAELFKKGVLYPVVENGELQFKPIQEAYREGDPLKINRIFEFRKGLKFKLGDETIEIPNSGRFIVSARFESISRIETREDIKPFLGEIGKEVDGAIFSGYQGLRTKYSDGKDANYYLRRAKEDIIEFKEKDVKIHVEFASVQDRKLRKKIITNILPFVDSVGIDEAEIAQILSVLGYRELADRIFTYNRLEDSILGGMIILDELNFEILQVHTTYYLMYITHRDNPLSEEELAKSLEFGTTLAAARASLGDIRGPDDYKVGLKVPFNERSEYVKLRFEEAKSRLRMREYKVVVIPTRLVQNPVLTVGLGDTISAGAFLTYLEFLKRHGS
MSLKLVAIAGSIGEQSYNRMLLQYIAKHFENLVDIELLNIDDVPVFNEDEDLSDNIKIQKIYQKIYGADGVILATPEHNHTVTAAIKNVIEWLSFKLHPFDGKPVWIVGASYFNQGSSRAQLHLKQILEAPGVNAIVMPGNEFLLRNAKEAFDAEGQLKDAGTVQFLEMVIQKFIKFVKVIDMLDAPDPKSYQDEDLESKGKVNTTIEGVDMHDEHWVEKAAQKVHAVDGSTYVKLDRGILTVDQLNYFLKTMPVELTYADDNNQFIYYNKNQPADKMLAPRNPGQAGDPLADVHPGRAVDRVKQVIHALRTGETDLVSMPVPGNGPDRHVMHYYKAMRDENGRYRGVNEWVTDIMPIIKYYLASTGEGHHHHHH

Soluble on expression in E. coli, not soluble:
MGFIMLLRSRFLKVIHVRKQLSACSRFAIQTQTRCKSTDASEDEVKHFQELAPTWWDTDGSQRILHKMNLTRLDFVQRTVRNQVKIQNPEIFVPGFNYKEFLPEYVCDNIQREMQESIETNLDKRPEVSVLDVGCGGGILSESLARLKWVKNVQGIDLTRDCIMVAKEHAKKDPMLEGKINYECKALEDVTGQFDIITCMEMLEHVDMPSEILRHCWSRLNPEKGILFLSTINRDLISWFTTIFMGENVLKIVPKGTHHLSKYINSKEILAWFNDNYSGQFRLLDLKGTMYLPYQGWVEHDCSDVGNYFMAIQRLN
MKTEEELLNRMQAYCARTEHCRSEVAAKLRQAGTDELMIERLLQRLVEDRFIDEDRFARAYARDKYRFNGWGPKRIALELVKRHIPDSIIGSTLLDLEEGEDKIEDNLPRLLERKLRSIKDTDDRGRLHRLVRWAVGRGFEYEQVMREASRLLRKGYEEDS
MGSDKIHHHHHHMNILITGASGFIGRQLVERLAPHHQLTLLTRSVQQTQRILGNQHHYLESLDALSDLNHIDAIVNLAGEPIVAKRWSKNQKQRICDSRWDITARLTQLIQQSSNPPEIMVSGSAVGYYGRHDDKLLDESSGAHVEFSHDICRKWEQEALNANTEHTRVCIIRIGIVLGKGGALEKMLPPFKLGLGGPIGHGRQGMSWIHVQDLISLIDFLLSQEHCKGVFNATAPNPVSNAVFTKALGKALNRPALITTPPLALRLAMGEMSELLTEGQFVYPKRALEAGFQFQFSDLDNALTDVLAK
GPGSMEREQLISSASQPRRTVQSPARWADSSLNEIPETPPESGGAGGKLCGRMSDCIRALQVSIQPIITVVSSGNGSRRNNGGGPTVTEPLVAGRMGEREASSPGRNSFNPPRTRSGRESQPQGTISAVSGPEQHSAEKAPASPITVAGEQRMSASRPASGLASVPATGAEGLAVDHLAPGSGGVPEASTNDIIRAVENDRGMLHTTEQLSAVLERLAEYLPIRVEVELDERGPGGDTSSNCFLHHLCLQILGPVRTTPHSALLGLLEDILLEDCVPTSLRISSIHFADVSFSVEPAPGMQSTEEANNVVSFDALPIFGFTTTRVASGDVAENEKVKKECTERFCAFAKNMLECYSHTTSVRLTRCCFTPSDLGRWLKLPLLQLRRLYFEKCPLTAAHLDALIRLARATSRQSGRGPAFQRLEELQLSGSLTEESVAAVLSYFSDELLDGEFALVSLRLPSLWLRVAQSHPILERQPSLIVTST
MKTFPLQSLTLAEAQQKQFALVDTICRHFPGSEFLAGGDLGLTPSLNQPRITQRVEQVLADAFHAQAAALVQGAGTGAIRAGLAALLKPGQRLLVHDAPVYPTTRVIIEQMGLTLITADFNDLSALKQVVDEQQPDAALVQHTRQQPQDSYVLADVLATLRAAGVPALTDDNYAVMKVARIGCECGANVSTFSCFKLFGPEGVGAVVGDADVISRIRATLYSGGSQIQGSQALEVLRGLVFAPLIHAVKAGVSERLLALLNGGAVAEVKSAVIANAQSKVLIVEFHQLIAARVLEEAQKRGALPYPVGAESKYEIPPLFYRLSGTFRQANPQLEHCAIRINPNRSGEETVLRILRESIASI
MDRIQENQKKATNLCELYADGNDDDSEKEQQDRGLDAQFLLRSTPEDVEKYMIHVRKQLMEGEGECLVELGAPINSNSKNPKSGLSEEDLDKAADAQLKILEKIPAVGTKVIRRKQTGGGSLFTEVWIIRDPPTEKDFIEARVAVVGNVDAGKSTLLGVLTHSALDDGRGAARTKLFRHKHEFESGRTSSVGNDILGFDVHGNIVNKPDPHNHNLDWVQIGSDCAKLVTFIDLAGHEKYLKTTIFGMTGHMPDYTMLMIGANMGIIGTTKEHLSLALSLHVPVYLVVTKIDMCPANILEETMKNITRLVRSAKKLPILVRNMDDVVHAAVNFPSKKVCPIFQVSNVEGTNLPLLRQFLNIVPLRRQLNENDPAHFQIDDIYWVDGVGTIASGTLLSGTIRLNDILLLGPTSNGDFMPIPIKSIHRKRMPVGIVKCGQSASFALKKIPKKDVRKGMVLVDPKVKPVASMVFEAEILVLHHPTTIKPNYQAMLHIGSVRQTATLVSMGKEVLRTGDRDKVQFKFIRQPEYIRPGTKMVFREGRTKAVGTVSSVVPQESLAQQRAKQKDGRQKQYGKKSMGPKPPNGKPKEKIEKKLDALSIEQLTSAASTSTSST
MGSDKIHHHHHHMKIPRRLEPLLEDGLIDGVVRQLMSGKEAMVFAVRCGDEIRCAKVYKEANKRSFRQAVDYTENRKTKNSRQARAMAKGSKYGRQMQEAAWQSAEVDALYRLAAAGVRVPTPYNFHEGVLLMELVADADGNAAPRLNDVSFTEGEALAHHQTLIREVVRMLCAGVVHGDLSEFNILVGADGPVIIDLPQAVDAAGNNHAQAMLMRDVHNLRGYFGQFAPALLTTRYAEEIWALYEHGSLHPEVALSGQFECEMPPVDLEGVMREIDDAREQEAARLLRLQELS
MGSDKIHHHHHHMMVLEQPLKSFFTSLSQSKSMNKLAKKWGLKLGASQVVAGVTISEAIEKVKELNEKGLSATLDHLGEFVEERTEAIEATDHCIQTLEQIASSGVNCNLSLKLTQLGLDIDQSFCLENMERIIKKAAELGIFVRIDMEDYGHCQQTLDILAELRKTYDNVGTVIQAYLFRALDDVRALEGIPLRLVKGAYKESPEVAYQEKEKIDENYFNMIKLHLDSGTYTAIASHDHQIIDRVKAYVKEKGISHSQFEFQMLYGFRTNLQEELVKEGYNVRIYVPFGIDWFGYFMRRLAERPQNVAFALRGFFSK
MGSDKIHHHHHHMNKHFTFTINSICLDENYHPSDKTRITTNFANLARGSHRQANLRNALKMIDNSFNALAHWDNPKGDRYSVELEIISVNLDIDGSGQTFPSIEVLKTNIVDHKTNKRIEGIVGNNFSSYVRDYDFSVLLAEHNKGQAKFSIPDDFGGLHGKLFQSFVNSDAYKQNFNKPPVICLSVSDNKTYHRIENQHPVLGVEYQPNESSLTEQYFKKMGLQVRYFMPPNSVAPLAFYFFGDLLNDYTHLELISTISTMGTFQKIYRPEIYNANAVAGKCYQPNLKNLDHSLTQIVYDRAERSQLANEQGKFAAEHFIKPYQTFFEQWPANYL
MGSDKIHHHHHHMKETSRKSGASAAKGKVIITCAVTGAIHTPTMSPYLPITPDQIASEAIAAAQAGAAILHLHARDPETGKPDQTPEAFARFLPRVKQGTNAAINITTGGSPYMKVEERVRPAAQFKPEVASLNMGSINFGLYHLADKYETFKFDWEKPHLEATRDLVFRNSFKDIEYILATCYDNGTRFEFECYDIAHLYNLSHFADRGLVKPPFFVQSVFGLLGGIGTHPEDVAHMKRTADRLFGDQFRWSVLGAGASQLRIAAQSAALGGNIRVGLEDSLWAGKGKLAKSNAEQVVLARKIIEGLGMEVATPDEAREILSLKGGDKVAF
MGSDKIHHHHHHMNTANPEQALAMSQAKLLCDTMSTLAESPVWDERRQVLFWCDILGKTVRSAALEPGQYREWPFPHTVSSLGLRENGDLVVACGMDIVILDPDSGRTRLLHSIPAPEGIPCRLNDGRVGPDGAFWVGTMHNVPLSEMKPYGELWRITATSAKRMQTGLTCPNGLAFSPDGSIMWQSDSVQKWIRRRNFYRVNGLFDEGVLVAQMTEETGRPDGGCLDSSGTYYSAGVSAGMLNVFAEDGGKQTAAIKMPVPHPTMPCFGGPDFSTLFVTSHRHNMSAERLEQAPFSGGVWMIPTQTKGFAPFRFEG
